# Laboratory results as given in publication PMC9186387.
# Read-outs that look alike come from different tables or passages of the source.
# T1: DriD(Y168A-R178A-Y192A-R204A) (Caulobacter crescentus, UniProt Q9A999 5-331, Y172A;R182A;Y196A;R208A)
# T1 sequence: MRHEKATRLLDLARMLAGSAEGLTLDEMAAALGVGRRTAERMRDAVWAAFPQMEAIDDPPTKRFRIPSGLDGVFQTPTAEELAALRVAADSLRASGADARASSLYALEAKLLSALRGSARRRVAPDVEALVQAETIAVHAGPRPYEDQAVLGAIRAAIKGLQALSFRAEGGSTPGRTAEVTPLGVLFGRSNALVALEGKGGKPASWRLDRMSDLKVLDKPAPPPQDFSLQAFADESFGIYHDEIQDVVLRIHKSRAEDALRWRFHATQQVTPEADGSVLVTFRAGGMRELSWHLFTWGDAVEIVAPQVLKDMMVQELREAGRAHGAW
# T2: DriD(Y168A) (Caulobacter crescentus, UniProt Q9A999 5-331, Y172A)
# T2 sequence: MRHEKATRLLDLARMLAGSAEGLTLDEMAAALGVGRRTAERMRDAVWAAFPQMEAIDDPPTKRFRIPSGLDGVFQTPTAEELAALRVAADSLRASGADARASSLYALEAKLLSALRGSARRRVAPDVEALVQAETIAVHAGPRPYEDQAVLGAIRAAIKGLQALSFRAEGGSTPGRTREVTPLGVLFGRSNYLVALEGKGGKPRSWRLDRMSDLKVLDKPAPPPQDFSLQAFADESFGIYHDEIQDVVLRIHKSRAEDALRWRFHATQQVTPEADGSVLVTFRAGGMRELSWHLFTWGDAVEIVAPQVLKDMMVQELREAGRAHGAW
# T3: DriD(R176A-R178A) (Caulobacter crescentus, UniProt Q9A999 5-331, R180A;R182A)
# T3 sequence: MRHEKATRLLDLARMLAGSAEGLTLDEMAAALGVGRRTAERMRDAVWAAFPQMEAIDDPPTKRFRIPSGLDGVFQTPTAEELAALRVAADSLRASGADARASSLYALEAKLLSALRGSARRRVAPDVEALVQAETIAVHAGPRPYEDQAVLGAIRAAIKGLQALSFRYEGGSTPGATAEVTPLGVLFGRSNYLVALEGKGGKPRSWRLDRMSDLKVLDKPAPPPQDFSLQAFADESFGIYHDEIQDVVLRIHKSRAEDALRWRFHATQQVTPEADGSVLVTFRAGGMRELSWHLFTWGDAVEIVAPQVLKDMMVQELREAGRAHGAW
# Experiments:
# [1] = molecular target: C. crescentus full-length DriD (C. crescentus); test: SEC
# [2] = molecular target: T1, DriD(Y168A-R178A-Y192A-R204A); test: fluorescence polarization
# DriD(Y168A) = molecular target: T2, DriD(Y168A); test: fluorescence polarization
# [3] = molecular target: T1, DriD(Y168A-R178A-Y192A-R204A); test: fluorescence polarization; remark: listed apart in the source
# DriD(R176A-R178A) = molecular target: T3, DriD(R176A-R178A); test: fluorescence polarization
molecule,measurement,setting,value
C. crescentus full-length DriD (natural protein),stoichiometry N,[1],2
DriD operator (optimized) (dsDNA) DNA 1: ATACGACCGTTTCTGTCGCA DNA 2: TGCGACAGAAACGGTCGTAT,binding result,[2],no binding
same,Kd,DriD(Y168A),22.3 ± 7 nM
TAGTCTACT (ssDNA) [9mer ssDNA (F-labelled)],binding result,[3],no binding
same,binding result,DriD(R176A-R178A),no binding
